Measured values taken from patent publication US12667625B2, “Antibody-drug conjucates and their uses for the treatment of cancer” (INATHERYS, priority 2018, dated 2026).

Legend:
[1] = system: THP-1 cell line (CD71+); experiment: Comparative binding on THP-1 cell line by flow cytometry; details: biotinylated antibodies, serial dilutions 5 to 0.05 ug/mL, streptavidin Alexa F488
Experimental: (§1) Serial dilutions (5 to 0.05 ug/mL) of both biotinylated antibodies (antibody A24 and antibody of ADC INA01-SDV1) were performed and incubated on THP-1 and MEC-1 cell lines. The binding of the diluted antibodies was detected by Flow cytometry using streptavidin Alexa F488 (available at ThermoFisher scientific).

[2] = system: MEC-1 cell line (CD71+); experiment: Comparative binding on MEC-1 cell line by flow cytometry; details: biotinylated antibodies, serial dilutions 5 to 0.05 ug/mL, streptavidin Alexa F488
Experimental: as §1

B1: A24: murine monoclonal anti-human TfR antibody as disclosed in WO 2005/111082 (antibody, listed as Homo sapiens, V domains shown)
VH: QIQLVQSGPELKKPGETVKISCKASGYTFTNQGMNWVKQAPGKGLKWMGWINTYTGEPINADDFKGRFAISLETSASTAYLQINNLKNEDMATYFCVREGWDSMDYWGQGTSVTVSS
VL: QIVLTQSPAIMSASPGEKVTITCSASSSVNYMHWFQQKPGTSPKLWIYSTSNLASGVPARFSGSGSGTSYSLTISRMEAEDAATYYCQQRSSYPLTFGAGTKLELKR
[1]
  affinity to the CD71+ cell line (binding): identical affinity
[2]
  affinity to the CD71+ cell line (binding): identical affinity
